Columns and labels:
[1] = biological target: Myc-STAT3 1-355 (purified) (UniProt P40763 1-355); assay: pull-down; IL-6; Pull-down: 20 mM Hepes pH 7.9, 100 mM KCl, 5 mM MgCl2, 0.1 mM EDTA, 4 mM DTT, 12% glycerol, 60 min room temperature (Fig 6D: 30 min on ice); EMSA: LightShift chemiluminescent kit, buffer not stated; conditions: protein: recombinant; tags: Myc; label: 5'-biotin
[2] = biological target: Myc-STAT3 C-terminal region (purified) (UniProt P40763 465-770); assay: as above; conditions: protein: recombinant; tags: Myc; label: 5'-biotin
[3] = biological target: Myc-STAT3 R382Q (purified) (UniProt P40763 1-770, R382Q); assay: pull-down; IL-6; enhanced vs WT; Pull-down: 20 mM Hepes pH 7.9, 100 mM KCl, 5 mM MgCl2, 0.1 mM EDTA, 4 mM DTT, 12% glycerol, 60 min room temperature (Fig 6D: 30 min on ice); EMSA: LightShift chemiluminescent kit, buffer not stated; conditions: protein: recombinant; tags: Myc; chain copies: 2; label: 5'-biotin
[4] = biological target: Myc-STAT3 V461/462/463A (purified) (UniProt P40763 1-770, V461A;V462A;V463A); assay: as above; conditions: protein: recombinant; tags: Myc; chain copies: 2; label: 5'-biotin
[5] = biological target: T1, Myc-STAT3 wild type (purified) (UniProt P40763 1-770); assay: EMSA; 2 ug protein, 1 nM probe; less efficient than SIE; Pull-down: 20 mM Hepes pH 7.9, 100 mM KCl, 5 mM MgCl2, 0.1 mM EDTA, 4 mM DTT, 12% glycerol, 60 min room temperature (Fig 6D: 30 min on ice); EMSA: LightShift chemiluminescent kit, buffer not stated; conditions: protein: recombinant; tags: Myc; chain copies: 2; label: 5'-biotin
[6] = biological target: T1, Myc-STAT3 wild type (purified); assay: competition; 200-fold unlabeled competitor; Pull-down: 20 mM Hepes pH 7.9, 100 mM KCl, 5 mM MgCl2, 0.1 mM EDTA, 4 mM DTT, 12% glycerol, 60 min room temperature (Fig 6D: 30 min on ice); EMSA: LightShift chemiluminescent kit, buffer not stated; conditions: protein: recombinant; tags: Myc; chain copies: 2

T1 sequence (P40763 whole entry): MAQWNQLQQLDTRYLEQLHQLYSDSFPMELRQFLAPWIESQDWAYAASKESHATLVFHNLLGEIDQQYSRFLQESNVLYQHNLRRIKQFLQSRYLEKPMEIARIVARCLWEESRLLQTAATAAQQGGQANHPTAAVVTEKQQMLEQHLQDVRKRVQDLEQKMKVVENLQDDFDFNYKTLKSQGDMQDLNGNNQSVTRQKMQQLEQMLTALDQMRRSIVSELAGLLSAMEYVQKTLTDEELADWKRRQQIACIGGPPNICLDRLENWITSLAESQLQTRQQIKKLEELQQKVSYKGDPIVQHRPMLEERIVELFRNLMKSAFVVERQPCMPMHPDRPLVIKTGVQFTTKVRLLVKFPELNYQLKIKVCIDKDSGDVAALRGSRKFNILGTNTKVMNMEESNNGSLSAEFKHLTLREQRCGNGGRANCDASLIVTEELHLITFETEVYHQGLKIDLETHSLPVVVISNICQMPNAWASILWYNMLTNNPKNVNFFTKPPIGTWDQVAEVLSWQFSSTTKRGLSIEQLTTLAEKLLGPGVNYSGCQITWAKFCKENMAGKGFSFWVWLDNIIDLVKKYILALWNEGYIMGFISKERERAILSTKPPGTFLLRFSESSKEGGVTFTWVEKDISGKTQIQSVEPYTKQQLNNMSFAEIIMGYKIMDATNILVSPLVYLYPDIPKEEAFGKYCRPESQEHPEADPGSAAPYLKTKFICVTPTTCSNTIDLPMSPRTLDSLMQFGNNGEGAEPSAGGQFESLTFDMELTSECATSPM
Chain of Myc-STAT3 1-355 (purified) (P40763 1-355): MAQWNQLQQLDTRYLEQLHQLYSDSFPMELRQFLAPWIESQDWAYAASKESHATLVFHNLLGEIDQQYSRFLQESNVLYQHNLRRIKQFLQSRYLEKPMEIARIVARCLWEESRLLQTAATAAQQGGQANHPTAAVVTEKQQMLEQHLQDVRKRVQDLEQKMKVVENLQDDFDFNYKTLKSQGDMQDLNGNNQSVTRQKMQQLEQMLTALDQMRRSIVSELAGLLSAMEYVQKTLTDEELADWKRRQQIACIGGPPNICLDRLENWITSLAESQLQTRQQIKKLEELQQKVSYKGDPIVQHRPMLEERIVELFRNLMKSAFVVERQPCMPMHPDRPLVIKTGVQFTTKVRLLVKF
Chain of Myc-STAT3 V461/462/463A (purified) (P40763 whole entry V461A/V462A/V463A): as the sequence (P40763 whole entry) above, with V461A, V462A, V463A counted along it
Chain of Myc-STAT3 R382Q (purified) (P40763 whole entry R382Q): as the sequence (P40763 whole entry) above, with R382Q counted along it
Chain of Myc-STAT3 C-terminal region (purified) (P40763 465-770): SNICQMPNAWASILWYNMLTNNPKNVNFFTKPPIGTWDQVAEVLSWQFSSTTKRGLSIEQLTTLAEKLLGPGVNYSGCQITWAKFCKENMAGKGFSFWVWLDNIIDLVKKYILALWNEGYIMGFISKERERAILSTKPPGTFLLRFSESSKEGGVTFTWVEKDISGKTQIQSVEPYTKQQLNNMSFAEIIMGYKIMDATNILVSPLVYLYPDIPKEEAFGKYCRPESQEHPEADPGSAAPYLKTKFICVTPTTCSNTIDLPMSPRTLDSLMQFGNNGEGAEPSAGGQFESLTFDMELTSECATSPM

B1: AGG-element oligo (dsDNA)
DNA 1: TTTGGGAGGCCGAGGTGGG
DNA 2: CCCACCTCGGCCTCCCAAA
B1: binds [1]; no binding [2]; binds [3]. B1: binds [4]; binds [5].

B2: AGG oligo, unlabeled (dsDNA)
DNA 1: TTTGGGAGGCCGAGGTGGG
DNA 2: CCCACCTCGGCCTCCCAAA
B2: binds [6].

From paper PMC4605325, “The STAT3 HIES mutation is a gain-of-function mutation that activates genes via AGG-element carrying promoters”
